Reference: US20220251174A1

Biological target: SARS-CoV-2 Spike protein (Wuhan-1 isolate) on VSV pseudovirus particles (SARS-CoV-2) (UniProt P0DTC2)
Experiment: cell-based or functional assay

Substance	IC50 in pseudovirus assays
REGN10933 (benchmark, human IgG1) (antibody)	0.67 µg/mL
REGN10987 (benchmark, human IgG1) (antibody)	0.45 µg/mL
